Common to all, as to conditions: EMSA: 10 mM Tris pH 7.5, 50 mM KCl, 2.5% glycerol, 0.05% Nonidet P-40, 1 ug poly(dI-dC), 5 fmol probe, 20 min RT; AFM buffer not in the material
On the technique in general: In EMSA bound probe runs differently from free probe, usually more slowly.

Series [1] deals with His-SsrB (unphosphorylated);His-H-NS (Salmonella Typhimurium) (UniProt Q7CQM5+P0A1S2). Kind of series: EMSA supershift.
Series [2] addresses T1, His-SsrB (unphosphorylated) (UniProt Q7CQM5).
T1 sequence: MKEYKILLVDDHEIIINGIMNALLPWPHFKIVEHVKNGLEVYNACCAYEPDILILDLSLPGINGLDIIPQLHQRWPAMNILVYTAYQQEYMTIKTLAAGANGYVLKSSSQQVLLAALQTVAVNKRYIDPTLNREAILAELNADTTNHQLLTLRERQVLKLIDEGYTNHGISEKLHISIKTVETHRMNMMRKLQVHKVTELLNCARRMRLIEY
Put plainly: EMSA.

Series [3] addresses T2, His-H-NS (Salmonella Typhimurium) (UniProt P0A1S2).
T2 sequence: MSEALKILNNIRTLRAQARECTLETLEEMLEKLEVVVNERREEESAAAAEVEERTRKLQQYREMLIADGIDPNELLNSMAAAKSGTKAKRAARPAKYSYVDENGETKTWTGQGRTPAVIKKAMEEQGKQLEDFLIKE
Put plainly: EMSA.

For a further series, the target named is T3, K179A His-SsrB K179A (UniProt Q7CQM5).
T3 sequence: T1 sequence with K179A
Kind of series: EMSA.

Numbering of substitutions follows the chain as printed.

With “AATATTTTTCTCTTTCTGGATAATGGGCTATTTCAACCCACAGCAGTGCAACATCTGTCAGTACTTCTGGTGCCTTTATTTTATGGGGGCAGCTGTCAGATGTGCGATTAAAAAAAGTGGAGTTTCATCA (double strand) [csgD122]”, the binding entry in series [1] is “binds”; in series [2], “binds”; in series [3], “binds”; in the series with K179A His-SsrB K179A, “no binding”.

Source of the values: article PMC4769171.
